Each block holds one substance with its values, some of them ahead of it.
What was measured:
[1] = target: T1, human IL-33 (R&D Systems, #3625-IL-010/CF) (human) (UniProt O95760)
T1 sequence (looked up): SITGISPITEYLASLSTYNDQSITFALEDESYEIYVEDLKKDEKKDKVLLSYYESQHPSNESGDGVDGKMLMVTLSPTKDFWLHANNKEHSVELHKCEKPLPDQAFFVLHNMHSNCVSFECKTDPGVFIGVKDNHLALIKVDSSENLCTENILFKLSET

[2] = target: T1, human IL-33 (R&D Systems, #3625-IL-010/CF) (human); remark: listed apart in the source
[3] = target: human IL-33 N-His (human)
[4] = target: human ST2L on HEK-BLUE IL-33/IL-1beta cells (human) (UniProt Q01638)
[5] = target: human IL-33 (cell-based blocking assay of Example 2) (human) (UniProt O95760)
[6] = target: cyno IL-33 (cell-based blocking assay of Example 2) (cynomolgus monkey)
[7] = target: T1, human IL-33 (R&D Systems, #3625-IL-010/CF) (human); experiment: cell-based or functional assay
[8] = target: cynomolgus monkey N-terminal 6-His-tagged and C-terminal Avi-tagged IL-33 (S112-T270) (cynomolgus monkey); experiment: cell-based or functional assay
[9] = target: T1, human IL-33 (R&D Systems, #3625-IL-010/CF) (human); remark: listed apart in the source
[10] = target: T1, human IL-33 (R&D Systems, #3625-IL-010/CF) (human); remark: listed apart in the source

Sequence of cyno IL-33 (cell-based blocking assay of Example 2) (cynomolgus monkey) (chain, as listed by the source): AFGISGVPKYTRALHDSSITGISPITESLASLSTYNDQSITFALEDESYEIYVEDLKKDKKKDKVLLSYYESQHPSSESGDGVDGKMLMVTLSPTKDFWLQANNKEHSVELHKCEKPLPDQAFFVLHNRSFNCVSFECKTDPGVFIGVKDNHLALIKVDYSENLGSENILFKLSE
Sequence of cynomolgus monkey N-terminal 6-His-tagged and C-terminal Avi-tagged IL-33 (S112-T270) (cynomolgus monkey) (chain, as listed by the source limits assumed): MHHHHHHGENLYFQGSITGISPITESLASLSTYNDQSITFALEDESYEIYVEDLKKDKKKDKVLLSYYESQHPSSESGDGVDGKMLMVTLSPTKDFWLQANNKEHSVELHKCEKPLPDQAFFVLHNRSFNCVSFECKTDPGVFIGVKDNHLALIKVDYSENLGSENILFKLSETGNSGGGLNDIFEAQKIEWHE
Sequence of human ST2L on HEK-BLUE IL-33/IL-1beta cells (human) (Q01638 19-556 limits assumed): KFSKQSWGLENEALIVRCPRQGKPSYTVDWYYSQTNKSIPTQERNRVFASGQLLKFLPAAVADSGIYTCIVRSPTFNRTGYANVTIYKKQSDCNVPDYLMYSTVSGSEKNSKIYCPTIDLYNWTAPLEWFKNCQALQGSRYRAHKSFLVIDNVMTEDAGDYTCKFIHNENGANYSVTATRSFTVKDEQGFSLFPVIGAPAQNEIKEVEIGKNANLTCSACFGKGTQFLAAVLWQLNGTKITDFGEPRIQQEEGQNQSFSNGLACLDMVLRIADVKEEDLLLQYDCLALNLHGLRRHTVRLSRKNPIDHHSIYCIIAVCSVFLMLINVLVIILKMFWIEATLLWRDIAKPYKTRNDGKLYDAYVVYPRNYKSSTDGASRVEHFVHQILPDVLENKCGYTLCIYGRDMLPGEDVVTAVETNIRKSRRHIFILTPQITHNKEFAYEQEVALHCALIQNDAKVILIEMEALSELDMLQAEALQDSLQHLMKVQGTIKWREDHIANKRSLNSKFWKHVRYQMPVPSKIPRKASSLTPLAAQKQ

Ph-p38 MFI at 0.4 nM Ab (500 pM human IL-33, primary basophils) [1]: 152 MFI
Ph-p38 MFI at 2 nM Ab (500 pM human IL-33, primary basophils) [2]: 110 MFI
IC50 as printed in the table (fit value of a flat curve: Control IgG4 stays at about 115-125 % IL-33 activity up to 1e4 pM, no inhibition); SEAP reporter, HEK-BLUE IL-33 cells, 15 pM human IL-33 N-His [3]: 7.63e-06 pM
IC90 as printed in the table (fit value of a flat curve: Control IgG4 stays at about 115-125 % IL-33 activity up to 1e4 pM, no inhibition); SEAP reporter, HEK-BLUE IL-33 cells, 15 pM human IL-33 N-His [3]: 1.08e-06 pM
Substance: control IgG4 antibody

EC50 (SEAP reporter OD 620, HEK-BLUE IL-33/IL-1beta cells) [4]: 0.006 nM
Substance: human IL-33 N-His (ligand)

IC50 (HEK-BLUE SEAP reporter, IL-33 blocking) [5]: 0.0122 nM
IC90 (HEK-BLUE SEAP reporter, IL-33 blocking) [5]: 0.0467 nM
IC50 (HEK-BLUE SEAP reporter, IL-33 blocking) [6]: 0.0018 nM
IC90 (HEK-BLUE SEAP reporter, IL-33 blocking) [6]: 0.0036 nM
HEK-BLUE SEAP reporter IC50 [7]: 0.027 nM
IFN-γ secretion from primary NK cells, IC50 [7]: 0.15 nM
HEK-BLUE SEAP reporter IC50 [8]: 0.03 nM
Ph-p38 MFI at 0.4 nM sST2 (500 pM human IL-33, primary basophils) [1]: 113 MFI
Ph-p38 MFI at 2 nM sST2 (500 pM human IL-33, primary basophils) [2]: 40 MFI
IC50, IL-33-induced phospho-p38 in primary human basophils, 500 pM hIL-33 [9]: 7.9e-13 M
IC50 (read off the curve) [10]: 0.0008 nM
IC50; SEAP reporter, HEK-BLUE IL-33 cells, 15 pM human IL-33 N-His, 20 h [3]: 62.1 pM
IC90; SEAP reporter, HEK-BLUE IL-33 cells, 15 pM human IL-33 N-His, 20 h [3]: 257 pM
Substance: sST2-LZ (sST2 (M1-F328) C-terminal leucine zipper (LZ)-Flag-His) (receptor)

From patent publication US20190092852A1
